Paper PMC3391165

Molecular target: zebrafish ΔP2X4-B (zebrafish) (UniProt F8W463)
Experiment: crystal structure

zebrafish ΔP2X4-B (from UniProt F8W463 1-389) (receptor)
stoichiometry N: 3
